Measured values reported in US20200109182A1, “GLP-1 ANALOG FUSION PROTEIN AND PREPARATION METHOD AND APPLICATION THEREOF” (JIANGSU T-MAB BIOPHARMA CO., LTD, priority 2013, published 2020).

Molecular target: GLP-1 receptor (GLP-1R) on CHO DG44 2-A4-2-A8 cells
Assay: cell-based or functional assay

- EC50 (CRE-luciferase reporter, test NO. 1): 0.75 nM
- EC50 (CRE-luciferase reporter, test NO. 2): 0.368 nM
- EC50 (CRE-luciferase reporter, test NO. 3): 0.364 nM
Substance: GLP-1 (7-37) (Val^8-GLP-1 (7-37)) (from UniProt P01275 27-57) (peptide)
